Values quoted from earlier work, collected in publication PMC6406280.
pKd, pKi: −log10 of the molar value.

biological target: T1, thrombin (UniProt P00734+P00734); experiment: not stated (cited); details: modified TBA, not described; no binding assay done in this paper (SEC, CD/UV melting, analysis of published structures); conditions of the cited assays not in the material

For mTBA, the pKd is given as 7.60.

same assay, conditions: no binding assay done in this paper (SEC, CD/UV melting, analysis of published structures); conditions of the cited assays not in the material

In order of falling pKd:
1. RE31  9.25
2. CGCCTAGGTTGGGTAGGGTGGTGGCG [NU172 (aaa)]  7.46

biological target: T1, thrombin; experiment: not stated (cited; equals the aKi); details: no binding assay done in this paper (SEC, CD/UV melting, analysis of published structures); conditions of the cited assays not in the material

In the case of “CGCCTAGGTTGGGTAGGGTGGTGGCG [NU172 (aaa)]”, the pKd is listed as 9.54.

biological target: T1, thrombin; experiment: thrombin inhibition (apparent Ki); details: no binding assay done in this paper (SEC, CD/UV melting, analysis of published structures); conditions of the cited assays not in the material

In order of falling pKi:
1. CGCCTAGGTTGGGTAGGGTGGTGGCG [NU172 (aaa)]  9.54
2. CACTGGTAGGTTGGTGTGGTTGGGGCCAGTG [31-TBA (jjj)]  9.47
3. CACTGGTAGGTTGGGTAGGGTGGGGCCAGTG [jja]  8.92
4. CACTGGTAGGTTGGGTAGGGTGGTCCAGTG [jaa]  8.87
5. CGCCTAGGTTGGGTAGGGTGGGGGGCG [aja]  7.88
6. CGCCTAGGTTGGTGTGGTTGGTGGCG [aaj]  7.87
7. CACTGGTAGGTTGGTGTGGTTGGTCCAGTG [jaj]  7.85
8. CGCCTAGGTTGGTGTGGTTGGGGGGCG [ajj]  7.31
